The values below come from paper PMC3074137.

Data set [1] has as its target eIF4G-MC (83.5 kDa fragment of human eIF4GI, residues 712-1451) (human) (UniProt Q04637). Kind of data set: SAXS.
The target is the same in data set [2]. Kind of data set: SEC. On the technique in general: Size exclusion chromatography separates by hydrodynamic size, large species first.
Data set [3] shares this target. The data set can be described thus: ITC. In general terms: ITC needs no label: the signal is the heat of the interaction.
Another data set concerns the target eIF4G-MC (F978A) (human) (UniProt Q04637). The data set can be described thus: ITC.
The target of the next data set is His6-eIF4G-MC (human) (UniProt Q04637). Kind of data set: SPR. A general note: Surface plasmon resonance follows binding to a sensor surface in real time, without labels.
Sequence of His6-eIF4G-MC (human) (Q04637 711-1450): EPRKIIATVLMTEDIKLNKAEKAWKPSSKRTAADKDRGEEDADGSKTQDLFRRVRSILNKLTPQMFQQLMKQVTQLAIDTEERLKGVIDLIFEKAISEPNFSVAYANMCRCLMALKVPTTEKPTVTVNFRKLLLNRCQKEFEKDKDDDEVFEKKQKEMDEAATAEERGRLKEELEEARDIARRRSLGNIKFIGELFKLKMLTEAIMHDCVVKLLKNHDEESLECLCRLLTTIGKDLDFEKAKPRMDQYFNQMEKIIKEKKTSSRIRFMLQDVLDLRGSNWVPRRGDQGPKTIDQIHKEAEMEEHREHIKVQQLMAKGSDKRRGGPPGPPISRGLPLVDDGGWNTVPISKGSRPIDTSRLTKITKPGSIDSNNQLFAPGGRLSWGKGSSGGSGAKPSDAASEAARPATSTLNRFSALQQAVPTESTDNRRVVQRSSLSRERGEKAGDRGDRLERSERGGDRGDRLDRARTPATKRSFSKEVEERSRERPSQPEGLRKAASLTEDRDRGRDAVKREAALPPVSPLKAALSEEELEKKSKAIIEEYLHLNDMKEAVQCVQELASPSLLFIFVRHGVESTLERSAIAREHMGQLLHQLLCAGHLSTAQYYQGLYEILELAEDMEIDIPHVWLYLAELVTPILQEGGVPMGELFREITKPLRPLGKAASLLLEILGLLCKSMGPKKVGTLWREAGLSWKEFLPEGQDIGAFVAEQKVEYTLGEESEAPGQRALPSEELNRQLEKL
Another data set addresses eIF4A (human) (UniProt P60842). Kind of data set: ITC.
Another data set concerns the target eIF4B (human, UniProt P23588 1-611). The data set can be described thus: pull-down.
The next data set addresses eIF4A;eIF4BΔC (human;human, UniProt P60842;P23588 1-406;1-431, |). The data set can be described thus: pull-down.
Another data set concerns the target eIF4A;eIF4B (human;human, UniProt P60842;P23588 1-406;1-611, |). The data set can be described thus: pull-down.

Sequence of eIF4G-MC (83.5 kDa fragment of human eIF4GI, residues 712-1451) (human) (Q04637 711-1450): as above
Sequence of eIF4G-MC (F978A) (human) (Q04637 711-1450 F977A): as the sequence (Q04637 711-1450) above, with F267A counted along it
Sequence of eIF4B (P23588 whole entry): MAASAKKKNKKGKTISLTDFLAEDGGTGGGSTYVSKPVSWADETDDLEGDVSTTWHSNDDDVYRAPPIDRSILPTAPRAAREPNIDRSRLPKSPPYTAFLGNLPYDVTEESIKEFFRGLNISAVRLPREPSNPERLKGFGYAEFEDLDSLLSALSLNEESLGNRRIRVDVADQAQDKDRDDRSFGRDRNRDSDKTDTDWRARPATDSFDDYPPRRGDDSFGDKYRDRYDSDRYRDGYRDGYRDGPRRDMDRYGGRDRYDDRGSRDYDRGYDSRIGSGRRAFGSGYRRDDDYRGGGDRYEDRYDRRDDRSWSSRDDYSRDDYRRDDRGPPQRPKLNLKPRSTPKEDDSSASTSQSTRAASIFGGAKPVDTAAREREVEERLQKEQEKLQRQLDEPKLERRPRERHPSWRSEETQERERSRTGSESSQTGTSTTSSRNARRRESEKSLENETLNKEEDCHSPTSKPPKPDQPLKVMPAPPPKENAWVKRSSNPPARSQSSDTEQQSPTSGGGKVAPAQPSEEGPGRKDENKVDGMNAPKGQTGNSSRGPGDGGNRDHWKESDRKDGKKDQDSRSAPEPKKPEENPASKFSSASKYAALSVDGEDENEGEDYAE

“eIF4A (from UniProt P60842 1-406) (enzyme)”: the stoichiometry N (eIF4A per eIF4G-MC) in [1] was 1. Also, in data set [2], the stoichiometry N (eIF4A per eIF4G-MC) stood at 1. In data set [3], the KD high-affinity site was 50 nM and the KD low-affinity site turned out to be 775 nM. For the same molecule, in the data set with eIF4G-MC (F978A) (human), the Kd (commonly the equilibrium constant for the complex coming apart) was found to be 417 nM and the stoichiometry N (eIF4A per eIF4G-MC (F978A)) worked out at 1. This molecule also yielded a KD high-affinity site in the data set with His6-eIF4G-MC (human) of 67 nM.
In the data set with eIF4A (human), “eIF4G-MC (83.5 kDa fragment of human eIF4GI, residues 712-1451) (from UniProt Q04637-8 712-1451) (domain or fragment)” registered a KD high-affinity site of 42 nM and a KD low-affinity site of 1600 nM.

B1: pU30-biotin (ssRNA)
RNA: UUUUUUUUUUUUUUUUUUUUUUUUUUUUUU
As to B1, the binding result in the data set with eIF4B, in the data set with eIF4A;eIF4BΔC and in the data set with eIF4A;eIF4B was “binds” in each case.
